Measurements: publication PMC9352680, “A comprehensive thermodynamic model for RNA binding by the Saccharomyces cerevisiae Pumilio protein PUF4”

T1: PUF4 RNA-binding domain (Saccharomyces cerevisiae, UniProt P25339 537-888)
T1 sequence: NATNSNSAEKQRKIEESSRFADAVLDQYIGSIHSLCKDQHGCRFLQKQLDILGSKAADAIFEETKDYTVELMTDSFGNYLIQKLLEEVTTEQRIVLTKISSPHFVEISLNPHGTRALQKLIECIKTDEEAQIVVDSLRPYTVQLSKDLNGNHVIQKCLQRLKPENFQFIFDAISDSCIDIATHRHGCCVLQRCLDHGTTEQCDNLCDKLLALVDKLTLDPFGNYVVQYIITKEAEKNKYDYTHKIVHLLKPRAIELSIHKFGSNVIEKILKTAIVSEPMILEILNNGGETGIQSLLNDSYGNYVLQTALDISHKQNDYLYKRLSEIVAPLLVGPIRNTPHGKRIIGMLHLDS


Biological target: T1, PUF4 RNA-binding domain
Assay: Mg; RNA-MaP; 20 mM Na-HEPES pH 7.4, 30 mM KOAc, 0.75 mM MgCl2, 0.1% Tween-20, 5% glycerol, 0.1 mg/mL BSA, 2 mM DTT; 25 C; 0.0125-409.6 nM protein
Details: tags: N-His6-TEV cleaved; C-SNAP kept, Cy3B-labelled; label: tethered on chip by stalled RNA polymerase

Row | Binder | Kd
1 | Ib_S2_P3E.1_K3.1_C3.1_H3.1_[G2C]_A3.1_[T5C]_F3.1_T3.1 (ssRNA) RNA: UUUGAUUAAUAUGAUAUCGUUCUUUCUUCUACAUAUUCUUUCUCGAUAUCAUAUUAAUCUUU | > 2300 nM
2 | Ib_S2_P3E.1_K3.1_C3.1_H3.1_[G2A]_A3.1_[T5C]_F3.1_T3.1 (ssRNA) RNA: UUUGAUUAAUAUGAUAUCGUUCUUUCUUAUACAUAUUCUUUCUCGAUAUCAUAUUAAUCUUU | 467 nM
3 | Ib_S2_P3E.1_K3.1_C3.1_H3.1_[G2C]_A3.1_[A6G]_F3.1_T3.1 (ssRNA) RNA: UUUGAUUAAUAUGAUAUCGUUCUUUCUUCUAUGUAUUCUUUCUCGAUAUCAUAUUAAUCUUU | 87.4 nM
4 | Ib_S2_P3E.1_K3.1_C3.1_H3.1_[G2A]_A3.1_[T5A]_F3.1_T3.1 (ssRNA) RNA: UUUGAUUAAUAUGAUAUCGUUCUUUCUUAUAAAUAUUCUUUCUCGAUAUCAUAUUAAUCUUU | 1820 nM
5 | Ie_S4_P3E.2_K3.1_C3.2_H3.1_[+1TTCC]_A3.1_F3.1_T3.2 (ssRNA) RNA: UUUGACAACUGAUCGUUCUUUCUCUUUUCCGUAUAUAUAUUCUUUCUCGAUCAGUUGUCUUU | 45.7 nM
6 | Ie_S4_P3E.2_K3.1_C3.2_H3.1_[+3CCCT]_A3.1_F3.1_T3.2 (ssRNA) RNA: UUUGACAACUGAUCGUUCUUUCUCUUGUCCCUAUAUAUAUUCUUUCUCGAUCAGUUGUCUUU | 32.7 nM
7 | Ie_S4_P3E.2_K3.1_C3.2_H3.1_[+3TTCC]_A3.1_F3.1_T3.2 (ssRNA) RNA: UUUGACAACUGAUCGUUCUUUCUCUUGUUUCCAUAUAUAUUCUUUCUCGAUCAGUUGUCUUU | 23.4 nM
8 | Ie_S4_P3E.2_K3.1_C3.2_H3.1_A3.1_F3.1_[+8CCCTT]_T3.2 (ssRNA) RNA: UUUGACAACUGAUCGUUCUUUCUCUUGUAUAUACCCUUUAUUCUUUCUCGAUCAGUUGUCUUU | 6.29 nM
9 | Ie_S4_P4E.1_K4.1_C4.1_H4.1_[+1CTCTC]_A4.1_F4.1_T4.1 (ssRNA) RNA: UUUGACAACUGAUCGUUCUUUCUUCUCUCGUAUAUUAUUCUUUCUCGAUCAGUUGUCUUU | 5.7 nM
10 | Ie_S4_P4E.1_K4.1_C4.1_H4.1_[+2CCTCT]_A4.1_F4.1_T4.1 (ssRNA) RNA: UUUGACAACUGAUCGUUCUUUCUUGCCUCUUAUAUUAUUCUUUCUCGAUCAGUUGUCUUU | 118 nM
11 | Ie_S4_P3E.2_K3.1_C3.2_H3.1_[+2CT]_A3.1_F3.1_T3.2 (ssRNA) RNA: UUUGACAACUGAUCGUUCUUUCUCUUGCUUAUAUAUAUUCUUUCUCGAUCAGUUGUCUUU | 60.8 nM
12 | Ie_S4_P3E.2_K3.1_C3.2_H3.1_A3.1_[+6TC]_F3.1_T3.2 (ssRNA) RNA: UUUGACAACUGAUCGUUCUUUCUCUUGUAUAUCUAUAUUCUUUCUCGAUCAGUUGUCUUU | 2.11 nM
13 | Ie_S4_P3E.2_K3.1_C3.2_H3.1_A3.1_F3.1_[+8CC]_T3.2 (ssRNA) RNA: UUUGACAACUGAUCGUUCUUUCUCUUGUAUAUACCUAUUCUUUCUCGAUCAGUUGUCUUU | 2.91 nM
14 | Ie_S4_P4E.1_K4.1_C4.1_H4.1_[+1CTCT]_A4.1_F4.1_T4.1 (ssRNA) RNA: UUUGACAACUGAUCGUUCUUUCUUCUCUGUAUAUUAUUCUUUCUCGAUCAGUUGUCUUU | 0.208 nM
15 | Ie_S4_P4E.1_K4.1_C4.1_H4.1_[+1CCCT]_A4.1_F4.1_T4.1 (ssRNA) RNA: UUUGACAACUGAUCGUUCUUUCUUCCCUGUAUAUUAUUCUUUCUCGAUCAGUUGUCUUU | 0.155 nM
16 | Ie_S4_P4E.1_K4.1_C4.1_H4.1_[+2CCTC]_A4.1_F4.1_T4.1 (ssRNA) RNA: UUUGACAACUGAUCGUUCUUUCUUGCCUCUAUAUUAUUCUUUCUCGAUCAGUUGUCUUU | 105 nM
17 | Ie_S4_P4E.1_K4.1_C4.1_H4.1_[+2TTCC]_A4.1_F4.1_T4.1 (ssRNA) RNA: UUUGACAACUGAUCGUUCUUUCUUGUUCCUAUAUUAUUCUUUCUCGAUCAGUUGUCUUU | 23.9 nM
18 | Ie_S4_P3E.2_K3.1_C3.2_H3.1_[+2CCT]_A3.1_F3.1_T3.2 (ssRNA) RNA: UUUGACAACUGAUCGUUCUUUCUCUUGCCUUAUAUAUAUUCUUUCUCGAUCAGUUGUCUUU | 41.1 nM
19 | Ie_S4_P3E.2_K3.1_C3.2_H3.1_[+4CCC]_A3.1_F3.1_T3.2 (ssRNA) RNA: UUUGACAACUGAUCGUUCUUUCUCUUGUACCCUAUAUAUUCUUUCUCGAUCAGUUGUCUUU | 1.57 nM
20 | Ie_S4_P3E.2_K3.1_C3.2_H3.1_[+4CCT]_A3.1_F3.1_T3.2 (ssRNA) RNA: UUUGACAACUGAUCGUUCUUUCUCUUGUACCUUAUAUAUUCUUUCUCGAUCAGUUGUCUUU | 1.24 nM
21 | Ie_S4_P3E.2_K3.1_C3.2_H3.1_[+2TCC]_A3.1_F3.1_T3.2 (ssRNA) RNA: UUUGACAACUGAUCGUUCUUUCUCUUGUCCUAUAUAUAUUCUUUCUCGAUCAGUUGUCUUU | 10.8 nM
22 | Ie_S4_P3E.2_K3.1_C3.2_H3.1_[+4CTC]_A3.1_F3.1_T3.2 (ssRNA) RNA: UUUGACAACUGAUCGUUCUUUCUCUUGUACUCUAUAUAUUCUUUCUCGAUCAGUUGUCUUU | 1.08 nM
23 | Ie_S4_P3E.2_K3.1_C3.2_H3.1_[+2TTT]_A3.1_F3.1_T3.2 (ssRNA) RNA: UUUGACAACUGAUCGUUCUUUCUCUUGUUUUAUAUAUAUUCUUUCUCGAUCAGUUGUCUUU | 16.5 nM

Row | Binder | Kd
24 | Ie_S4_P3E.2_K3.1_C3.2_H3.1_[+3CTT]_A3.1_F3.1_T3.2 (ssRNA) RNA: UUUGACAACUGAUCGUUCUUUCUCUUGUCUUAUAUAUAUUCUUUCUCGAUCAGUUGUCUUU | 11.4 nM
25 | Ie_S4_P3E.2_K3.1_C3.2_H3.1_[+3CCC]_A3.1_F3.1_T3.2 (ssRNA) RNA: UUUGACAACUGAUCGUUCUUUCUCUUGUCCCAUAUAUAUUCUUUCUCGAUCAGUUGUCUUU | 13.7 nM
26 | Ie_S4_P4E.1_K4.1_C4.1_H4.1_[+2C]_A4.1_F4.1_T4.1 (ssRNA) RNA: UUUGACAACUGAUCGUUCUUUCUUGCUAUAUUAUUCUUUCUCGAUCAGUUGUCUUU | 148 nM
27 | Ie_S4_P3E.2_K3.1_C3.2_H3.1_[+3C]_A3.1_F3.1_T3.2 (ssRNA) RNA: UUUGACAACUGAUCGUUCUUUCUCUUGUCAUAUAUAUUCUUUCUCGAUCAGUUGUCUUU | 6.8 nM
28 | Ie_S4_P3E.2_K3.1_C3.2_H3.1_A3.1_F3.1_[+7C]_T3.2 (ssRNA) RNA: UUUGACAACUGAUCGUUCUUUCUCUUGUAUAUCAUAUUCUUUCUCGAUCAGUUGUCUUU | 2.77 nM
29 | Ie_S4_P3E.2_K3.1_C3.2_H3.1_A3.1_[+6C]_F3.1_T3.2 (ssRNA) RNA: UUUGACAACUGAUCGUUCUUUCUCUUGUAUACUAUAUUCUUUCUCGAUCAGUUGUCUUU | 0.411 nM
30 | Ie_S4_P3E.2_K3.1_C3.2_H3.1_A3.1_F3.1_[+8T]_T3.2 (ssRNA) RNA: UUUGACAACUGAUCGUUCUUUCUCUUGUAUAUAUUAUUCUUUCUCGAUCAGUUGUCUUU | 1.33 nM
31 | Ie_S4_P4E.1_K4.1_C4.1_H4.1_[+1CT]_A4.1_F4.1_T4.1 (ssRNA) RNA: UUUGACAACUGAUCGUUCUUUCUUCUGUAUAUUAUUCUUUCUCGAUCAGUUGUCUUU | 0.223 nM
32 | Ie_S4_P4E.1_K4.1_C4.1_H4.1_[+3CT]_A4.1_F4.1_T4.1 (ssRNA) RNA: UUUGACAACUGAUCGUUCUUUCUUGUCUAUAUUAUUCUUUCUCGAUCAGUUGUCUUU | 31.2 nM
33 | Ie_S4_P4E.1_K4.1_C4.1_H4.1_[+2TT]_A4.1_F4.1_T4.1 (ssRNA) RNA: UUUGACAACUGAUCGUUCUUUCUUGUUUAUAUUAUUCUUUCUCGAUCAGUUGUCUUU | 16.8 nM
34 | Ie_S4_P4E.1_K4.1_C4.1_H4.1_[+1CTC]_A4.1_F4.1_T4.1 (ssRNA) RNA: UUUGACAACUGAUCGUUCUUUCUUCUCGUAUAUUAUUCUUUCUCGAUCAGUUGUCUUU | 8.22 nM
35 | Ie_S4_P4E.1_K4.1_C4.1_H4.1_[+3CCC]_A4.1_F4.1_T4.1 (ssRNA) RNA: UUUGACAACUGAUCGUUCUUUCUUGUCCCAUAUUAUUCUUUCUCGAUCAGUUGUCUUU | 15 nM
36 | Ie_S4_P4E.1_K4.1_C4.1_H4.1_[+2CTC]_A4.1_F4.1_T4.1 (ssRNA) RNA: UUUGACAACUGAUCGUUCUUUCUUGCUCUAUAUUAUUCUUUCUCGAUCAGUUGUCUUU | 108 nM
37 | Ie_S4_P4E.1_K4.1_C4.1_H4.1_[+1TTT]_A4.1_F4.1_T4.1 (ssRNA) RNA: UUUGACAACUGAUCGUUCUUUCUUUUUGUAUAUUAUUCUUUCUCGAUCAGUUGUCUUU | 0.249 nM
38 | Ie_S4_P4E.1_K4.1_C4.1_H4.1_[+3TCC]_A4.1_F4.1_T4.1 (ssRNA) RNA: UUUGACAACUGAUCGUUCUUUCUUGUUCCAUAUUAUUCUUUCUCGAUCAGUUGUCUUU | 7.68 nM
39 | Ie_S4_P4E.1_K4.1_C4.1_H4.1_[+2TCC]_A4.1_F4.1_T4.1 (ssRNA) RNA: UUUGACAACUGAUCGUUCUUUCUUGUCCUAUAUUAUUCUUUCUCGAUCAGUUGUCUUU | 8.71 nM
40 | Ie_S4_P4E.1_K4.1_C4.1_H4.1_[+1TCC]_A4.1_F4.1_T4.1 (ssRNA) RNA: UUUGACAACUGAUCGUUCUUUCUUUCCGUAUAUUAUUCUUUCUCGAUCAGUUGUCUUU | 7.21 nM
41 | Ie_S4_P3E.2_K3.1_C3.2_H3.1_[+1CCTCT]_A3.1_F3.1_T3.2 (ssRNA) RNA: UUUGACAACUGAUCGUUCUUUCUCUUCCUCUGUAUAUAUAUUCUUUCUCGAUCAGUUGUCUUU | 0.898 nM
42 | Ie_S4_P3E.2_K3.1_C3.2_H3.1_[+3TCTCT]_A3.1_F3.1_T3.2 (ssRNA) RNA: UUUGACAACUGAUCGUUCUUUCUCUUGUUCUCUAUAUAUAUUCUUUCUCGAUCAGUUGUCUUU | 11.8 nM
43 | Ie_S4_P3E.2_K3.1_C3.2_H3.1_[+1TTCCT]_A3.1_F3.1_T3.2 (ssRNA) RNA: UUUGACAACUGAUCGUUCUUUCUCUUUUCCUGUAUAUAUAUUCUUUCUCGAUCAGUUGUCUUU | 1.16 nM
44 | Ie_S4_P3E.2_K3.1_C3.2_H3.1_[+2TCTCT]_A3.1_F3.1_T3.2 (ssRNA) RNA: UUUGACAACUGAUCGUUCUUUCUCUUGUCUCUUAUAUAUAUUCUUUCUCGAUCAGUUGUCUUU | 23.6 nM
45 | Ie_S4_P3E.2_K3.1_C3.2_H3.1_[+3CCTCT]_A3.1_F3.1_T3.2 (ssRNA) RNA: UUUGACAACUGAUCGUUCUUUCUCUUGUCCUCUAUAUAUAUUCUUUCUCGAUCAGUUGUCUUU | 21.3 nM
46 | Ie_S4_P3E.2_K3.1_C3.2_H3.1_[+3TTCCT]_A3.1_F3.1_T3.2 (ssRNA) RNA: UUUGACAACUGAUCGUUCUUUCUCUUGUUUCCUAUAUAUAUUCUUUCUCGAUCAGUUGUCUUU | 19.9 nM
